The source of these data is US20170015738A1.

Experiment [1] deals with hyper-phosphorylated P301L mutant human 4R0N tau from rTg4510 mouse brain (64 and 70 kDa species; P3 / brain extract) (human) (UniProt P10636). As to the kind of experiment: cell-based or functional assay.
For experiment [2] the target is unchanged. Nature of the experiment: MSD ELISA on immobilised P3; ratio of binding to Tg4510 over wt mouse material.
Experiment [3] shares this target. Nature of the experiment: immunodepletion of rTg4510 brain extracts; western blot quantification (FIG. 14).
Experiment [4] shares this target. Nature of the experiment: immunodepletion of rTg4510 brain extract with antibody on Protein G Dynabeads; western blot.
Experiment [5] shares this target. Nature of the experiment: fluid phase MSD ELISA: antibody mixed with rTg4510 P3 in solution, capture on C10-2 coated plates.
Experiment [6] has as its target aggregated tau in rTg4510 brain extract (Cisbio assay) (human) (UniProt P10636). As to the kind of experiment: immunodepletion of rTg4510 brain extract with antibody on Protein G Dynabeads; Cisbio aggregation assay.

Chain of hyper-phosphorylated P301L mutant human 4R0N tau from rTg4510 mouse brain (64 and 70 kDa species; P3 / brain extract) (human) (P10636 other isoform, or with tags, fused parts or gaps P301L P301L): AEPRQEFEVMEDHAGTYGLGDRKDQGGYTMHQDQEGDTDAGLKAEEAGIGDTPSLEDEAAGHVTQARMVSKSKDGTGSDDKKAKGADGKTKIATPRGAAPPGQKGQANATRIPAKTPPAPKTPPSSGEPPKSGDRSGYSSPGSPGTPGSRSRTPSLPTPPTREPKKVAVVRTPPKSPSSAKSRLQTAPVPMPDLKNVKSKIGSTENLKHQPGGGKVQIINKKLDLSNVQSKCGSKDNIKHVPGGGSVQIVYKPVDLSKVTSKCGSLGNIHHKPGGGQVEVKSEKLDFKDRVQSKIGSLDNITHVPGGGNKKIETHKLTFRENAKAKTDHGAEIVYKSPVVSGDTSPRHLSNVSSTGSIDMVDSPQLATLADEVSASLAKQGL
Chain of aggregated tau in rTg4510 brain extract (Cisbio assay) (human) (P10636 other isoform, or with tags, fused parts or gaps): as the sequence (P10636 other isoform, or with tags, fused parts or gaps P301L P301L) above

B1: Antibody C10-2 (murine) (antibody, mouse IgG1, kappa, V domains shown)
VH: QVQLQQSDAELVKPGASVKISCKASGYTFTDRTIHWVKQRPEQGLEWIGYIYPGDGSTKYNENFKGKATLTADKSSSTAYMQLNSLTSEDSAVYFCARRGAMDYWGQGTSVTVSS
VL: DVQMIQSPSSLSASLGDIVTMTCQASQGTSINLNWFQQKPGKAPKLLIYGASNLEDGVPSRFSGSRYGTDFTLTISSLEDEDMATYFCLQHTYLPFTFGSGTKLEIKR
As to B1, in experiment [1], the prevention of insoluble tau in HEK293 cells seeded with immunodepleted rTg4510 homogenate (western blot) was determined as 97% and the prevention of tau aggregation in HEK293 cells seeded with immunodepleted rTg4510 homogenate (Cisbio assay) amounted to 88%. Further, the TG/wt in experiment [2] was determined as 118 fold. The molecule further registered a percent reduction of the 64 kDa band in experiment [3] of 90%. For the same molecule, the percent removed by immunodepletion in experiment [4] turned out to be 95%. In experiment [5], the IC50 is 20 nM. Further, the percent of tau aggregates removed in experiment [6] came to 99%.

B2: Antibody D1.2 (antibody, mouse IgG2b, kappa, V domains shown)
VH: QVQLQQSGAELVRPGASVTLSCKASGNTFTDYEIHWVKQTPVHGLEWIGAIDPETGNTAYNQKFKGKARLTADKSSSTAYMELRSLTSEDSAVYYCTRSRGFDYWGQGTTLTVSS
VL: DVMMTQTPLSLPVSLGDQASISCRSSQSLVHSNGNTYLHWHLQKPGQSPKFLIYKVSNRFSGVPDRFSGSGSGTDFTLKISRVEAEDLGVYFCSQSTHVPFTFGSGTKLEIKR
As for B2, the percent reduction of the 64 kDa band in experiment [3] was determined as 90%. The molecule further displayed a percent removed by immunodepletion in experiment [4] of 95%.

B3: 4E4 antibody (antibody, from another filing, V domains shown)
VH: EVQLVESGGGLVQPGGSLKLSCAASGFNFNISAIHWVRQASGKGLEWVGRIRSKSHNYATLYAASLKGRFTLSRDDSRNTAYLQMSSLQTEDMAVYYCTVLSANYDTFDYWGQGTLVTVSS
VL: SYELTQPPSVSVSPGQTARISCFGDTLPKQYTYWYQQKPGQAPVLVIYKDTERPSGIPERFSGSSSGTTVTLTISGVQAEDEADYYCLSADNSATWVFGGGTKVTVL
B3: the TG/wt in experiment [2] was found to be 1 fold.
